Reference: article PMC10256740
Where two headings read alike, the source gives them in different places.

Columns and labels:
[1] = target: FLAG-tagged BicD2-Kif1bα tail fusion (mouse) (UniProt Q60575); assay: centrosome recruitment assay with BicD2-kinesin tail fusions (relocalisation in cells, microscopy); N2A cells transfected with FLAG-BicD2-KIF tail fusion and EGFP-tagged RBP (2:3), fixed after 24 h, anti-FLAG staining; read-out log2 of the mean EGFP intensity at the centrosome over the mean intensity in the whole cell
[2] = target: FLAG-tagged BicD2-Kif1c tail fusion (mouse) (UniProt O35071); assay: as above
[3] = target: mScarlet-I-Kif1c (full-length kinesin) (mouse) (UniProt O35071); assay: co-IP; N2A cells 48 h after co-transfection of EGFP-MBNL1-41 and mScarlet-Kif plasmids; lysis in 10 mM Tris-HCl pH 7.5, 150 mM NaCl, 0.5 mM EDTA, 0.5% NP-40; RFP-Trap magnetic agarose 1 h at 4 °C; western blot, quantitation normalized to input
[4] = target: mScarlet-I-Kif1bα (full-length kinesin) (mouse) (UniProt Q60575); assay: as above
[5] = target: FLAG-tagged BicD2-Kif1c tail fusion (mouse) (UniProt O35071); assay: centrosome recruitment assay with BicD2-kinesin tail fusions (relocalisation in cells, microscopy); N2A cells transfected with FLAG-BicD2-KIF tail fusion and EGFP-tagged RBP (2:3), fixed after 24 h, anti-FLAG staining; read-out log2 of the mean EGFP intensity at the centrosome over the mean intensity in the whole cell; remark: listed apart in the source

Chain of FLAG-tagged BicD2-Kif1c tail fusion (mouse) (O35071 whole entry, the tested form may be a part): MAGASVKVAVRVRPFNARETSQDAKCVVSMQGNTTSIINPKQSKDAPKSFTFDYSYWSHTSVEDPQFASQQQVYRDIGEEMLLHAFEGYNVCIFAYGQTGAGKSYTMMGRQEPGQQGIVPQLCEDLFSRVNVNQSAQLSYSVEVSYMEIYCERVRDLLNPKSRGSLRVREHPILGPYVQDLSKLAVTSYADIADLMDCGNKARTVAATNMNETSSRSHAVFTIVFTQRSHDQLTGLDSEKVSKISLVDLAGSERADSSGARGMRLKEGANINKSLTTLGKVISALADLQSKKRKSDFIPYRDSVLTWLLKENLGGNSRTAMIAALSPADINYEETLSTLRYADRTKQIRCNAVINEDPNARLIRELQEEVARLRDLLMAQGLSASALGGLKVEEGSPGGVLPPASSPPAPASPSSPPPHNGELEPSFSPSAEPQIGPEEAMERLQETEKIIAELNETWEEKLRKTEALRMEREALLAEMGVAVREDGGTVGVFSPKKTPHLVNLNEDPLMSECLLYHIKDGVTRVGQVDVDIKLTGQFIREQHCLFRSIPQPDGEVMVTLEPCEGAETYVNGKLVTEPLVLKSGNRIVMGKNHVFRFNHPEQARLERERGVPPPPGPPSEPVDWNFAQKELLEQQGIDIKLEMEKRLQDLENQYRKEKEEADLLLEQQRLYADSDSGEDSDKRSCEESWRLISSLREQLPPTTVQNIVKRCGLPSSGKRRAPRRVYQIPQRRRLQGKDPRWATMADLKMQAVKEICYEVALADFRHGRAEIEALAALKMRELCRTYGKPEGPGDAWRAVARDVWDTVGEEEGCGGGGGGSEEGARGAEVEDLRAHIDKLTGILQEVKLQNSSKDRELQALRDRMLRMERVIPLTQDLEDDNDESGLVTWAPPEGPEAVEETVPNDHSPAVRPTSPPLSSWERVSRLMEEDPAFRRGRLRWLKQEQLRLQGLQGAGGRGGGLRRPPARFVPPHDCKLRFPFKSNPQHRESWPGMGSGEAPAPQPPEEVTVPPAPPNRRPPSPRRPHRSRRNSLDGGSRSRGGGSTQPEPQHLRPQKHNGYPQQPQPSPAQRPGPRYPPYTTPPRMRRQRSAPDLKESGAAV
Chain of EGFP-MBNL1-41 (41 kDa isoform of MBNL1) (natural protein) (Q9NR56 whole entry, canonical isoform): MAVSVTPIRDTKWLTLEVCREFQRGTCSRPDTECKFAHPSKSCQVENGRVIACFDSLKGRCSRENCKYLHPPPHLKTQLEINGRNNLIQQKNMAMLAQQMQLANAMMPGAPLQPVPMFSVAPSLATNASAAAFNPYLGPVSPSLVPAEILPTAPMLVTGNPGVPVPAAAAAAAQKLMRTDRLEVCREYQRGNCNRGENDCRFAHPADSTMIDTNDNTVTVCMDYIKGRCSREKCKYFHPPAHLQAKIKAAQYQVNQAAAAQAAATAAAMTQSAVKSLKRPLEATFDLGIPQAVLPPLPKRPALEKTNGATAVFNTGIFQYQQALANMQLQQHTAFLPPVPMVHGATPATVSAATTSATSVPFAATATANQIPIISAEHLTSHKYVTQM
Chain of FLAG-tagged BicD2-Kif1bα tail fusion (mouse) (Q60575 other isoform, or with tags, fused parts or gaps): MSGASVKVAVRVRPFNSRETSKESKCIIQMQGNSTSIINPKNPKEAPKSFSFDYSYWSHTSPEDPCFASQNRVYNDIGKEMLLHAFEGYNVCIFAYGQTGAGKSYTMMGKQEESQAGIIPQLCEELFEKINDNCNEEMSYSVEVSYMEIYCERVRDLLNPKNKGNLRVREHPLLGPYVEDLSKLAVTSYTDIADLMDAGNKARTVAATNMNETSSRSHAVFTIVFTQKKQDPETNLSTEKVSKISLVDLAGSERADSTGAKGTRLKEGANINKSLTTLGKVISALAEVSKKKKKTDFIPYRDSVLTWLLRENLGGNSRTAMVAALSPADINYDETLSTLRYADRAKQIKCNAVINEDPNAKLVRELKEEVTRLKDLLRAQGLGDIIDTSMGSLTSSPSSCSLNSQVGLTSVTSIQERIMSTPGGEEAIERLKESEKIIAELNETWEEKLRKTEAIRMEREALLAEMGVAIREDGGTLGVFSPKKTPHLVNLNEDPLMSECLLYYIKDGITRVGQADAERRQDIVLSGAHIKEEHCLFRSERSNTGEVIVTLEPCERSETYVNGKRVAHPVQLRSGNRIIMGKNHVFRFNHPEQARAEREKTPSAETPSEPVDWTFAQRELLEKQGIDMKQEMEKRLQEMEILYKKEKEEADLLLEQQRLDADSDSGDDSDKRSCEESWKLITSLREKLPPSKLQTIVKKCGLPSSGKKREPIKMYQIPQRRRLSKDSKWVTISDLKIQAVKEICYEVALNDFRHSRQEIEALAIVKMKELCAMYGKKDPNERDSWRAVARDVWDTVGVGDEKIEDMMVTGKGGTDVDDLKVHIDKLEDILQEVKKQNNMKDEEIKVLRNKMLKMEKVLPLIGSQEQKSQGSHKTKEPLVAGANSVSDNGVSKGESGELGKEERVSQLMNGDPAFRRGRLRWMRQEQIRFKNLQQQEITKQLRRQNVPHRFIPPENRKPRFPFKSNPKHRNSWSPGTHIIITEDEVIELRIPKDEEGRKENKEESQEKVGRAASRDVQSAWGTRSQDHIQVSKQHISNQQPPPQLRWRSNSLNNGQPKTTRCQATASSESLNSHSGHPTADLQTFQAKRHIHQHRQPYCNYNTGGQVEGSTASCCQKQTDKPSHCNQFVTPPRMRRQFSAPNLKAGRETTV
Chain of EGFP-Cpsf4 (Q8BQZ5 whole entry): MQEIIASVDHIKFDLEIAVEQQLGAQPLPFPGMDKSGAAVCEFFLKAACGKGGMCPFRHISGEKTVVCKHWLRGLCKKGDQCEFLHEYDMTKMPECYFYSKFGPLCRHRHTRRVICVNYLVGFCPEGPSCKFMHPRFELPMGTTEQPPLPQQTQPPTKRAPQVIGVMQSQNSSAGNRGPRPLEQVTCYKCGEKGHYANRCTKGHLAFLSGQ
Chain of mScarlet-I-Kif1bα (full-length kinesin) (mouse) (Q60575 other isoform, or with tags, fused parts or gaps): as the sequence (Q60575 other isoform, or with tags, fused parts or gaps) above
Chain of mScarlet-I-Kif1c (full-length kinesin) (mouse) (O35071 whole entry): as the sequence (O35071 whole entry, the tested form may be a part) above

Row | log2 mean centrosome recruitment [1] [log2] | log2 mean centrosome recruitment [2] [log2] | fold enrichment of co-precipitated EGFP-MBNL1 as compared to Kif1bβ [3] [fold] | fold enrichment of co-precipitated EGFP-MBNL1 as compared to Kif1bβ [4] [fold] | log2 mean centrosome enrichment [5] [log2] | log2 mean centrosome enrichment [1] [log2] | log2 mean centrosome enrichment [2] [log2] | Substance
1 | 1.71 | 1.52 |  |  |  |  |  | EGFP-Cpsf4 (from UniProt Q8BQZ5 1-211) (natural protein)
2 |  |  | 10 | 10 | 0.497 | 0.506 | 0.56 | EGFP-MBNL1-41 (41 kDa isoform of MBNL1) (natural protein)
